The values that follow come from paper PMC11055677 (Cell, 2024).

First the molecules themselves.
B1: SPATA5, full-length wild type, subunit of the reconstituted 55LCC complex (enzyme, human, UniProt Q8NB90 1-893, looked up)
chain: MSSKKNRKRLNQSAENGSSLPSAASSCAEARAPSAGSDFAATSGTLTVTNLLEKVDDKIPKTFQNSLIHLGLNTMKSANICIGRPVLLTSLNGKQEVYTAWPMAGFPGGKVGLSEMAQKNVGVRPGDAIQVQPLVGAVLQAEEMDVALSDKDMEINEEELTGCILRKLDGKIVLPGNFLYCTFYGRPYKLQVLRVKGADGMILGGPQSDSDTDAQRMAFEQSSMETSSLELSLQLSQLDLEDTQIPTSRSTPYKPIDDRITNKASDVLLDVTQSPGDGSGLMLEEVTGLKCNFESAREGNEQLTEEERLLKFSIGAKCNTDTFYFISSTTRVNFTEIDKNSKEQDNQFKVTYDMIGGLSSQLKAIREIIELPLKQPELFKSYGIPAPRGVLLYGPPGTGKTMIARAVANEVGAYVSVINGPEIISKFYGETEAKLRQIFAEATLRHPSIIFIDELDALCPKREGAQNEVEKRVVASLLTLMDGIGSEVSEGQVLVLGATNRPHALDAALRRPGRFDKEIEIGVPNAQDRLDILQKLLRRVPHLLTEAELLQLANSAHGYVGADLKVLCNEAGLCALRRILKKQPNLPDVKVAGLVKITLKDFLQAMNDIRPSAMREIAIDVPNVSWSDIGGLESIKLKLEQAVEWPLKHPESFIRMGIQPPKGVLLYGPPGCSKTMIAKALANESGLNFLAIKGPELMNKYVGESERAVRETFRKARAVAPSIIFFDELDALAVERGSSLGAGNVADRVLAQLLTEMDGIEQLKDVTILAATNRPDRIDKALMRPGRIDRIIYVPLPDAATRREIFKLQFHSMPVSNEVDLDELILQTDAYSGAEIVAVCREAALLALEEDIQANLIMKRHFTQALSTVTPRIPESLRRFYEDYQEKSGLHTL
B3: CINP, full-length wild type, subunit of the reconstituted 55LCC complex (natural protein, human, UniProt Q9BW66 1-212, looked up)
chain: MEAKTLGTVTPRKPVLSVSARKIKDNAADWHNLILKWETLNDAGFTTANNIANLKISLLNKDKIELDSSSPASKENEEKVCLEYNEELEKLCEELQATLDGLTKIQVKMEKLSSTTKGICELENYHYGEESKRPPLFHTWPTTHFYEVSHKLLEMYRKELLLKRTVAKELAHTGDPDLTLSYLSMWLHQPYVESDSRLHLESMLLETGHRAL

Series [1] deals with the molecule itself. Nature of the series: cryo-EM structure; reconstituted 55LCC incubated with 5 mM ATPγS, 0.01% fluorinated octyl maltoside; AlphaFold 2 models rigid-body fitted into the composite map.
The target of series [2] is B3. The description is as above. To be noted: both partners purified.
In series [3] the target is B1. Nature of the series: mass photometry; reconstituted 55LCC, 120 nM final, 25 mM Tris pH 7.5, 400 mM NaCl, with 2 mM ADP or after addition of 5 mM ATPγS (more of the 55LCC peak with ATPγS). The settings on record: both partners purified.
Series [4] concerns the target T1, C1orf109, untagged, of the purified C1orf109-CINP sub-complex (human, UniProt Q9NX04 1-203).
T1 sequence (looked up): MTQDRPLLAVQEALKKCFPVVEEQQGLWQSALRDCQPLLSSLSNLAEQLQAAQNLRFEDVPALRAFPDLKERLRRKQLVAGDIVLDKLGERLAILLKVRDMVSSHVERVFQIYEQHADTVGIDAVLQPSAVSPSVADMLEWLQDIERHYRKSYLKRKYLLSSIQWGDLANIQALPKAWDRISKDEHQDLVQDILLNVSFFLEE
Description: native MS; untagged proteins in 500 mM ammonium acetate; 12 μM C1orf109, 20 μM CINP, 20 μM C1orf109-CINP complex. The settings on record: both partners purified.

Regarding B1, the binding result in series [1] is “binds”.

B2: C1orf109, full-length wild type, subunit of the reconstituted 55LCC complex (natural protein, human, UniProt Q9NX04 1-203, looked up)
chain: MTQDRPLLAVQEALKKCFPVVEEQQGLWQSALRDCQPLLSSLSNLAEQLQAAQNLRFEDVPALRAFPDLKERLRRKQLVAGDIVLDKLGERLAILLKVRDMVSSHVERVFQIYEQHADTVGIDAVLQPSAVSPSVADMLEWLQDIERHYRKSYLKRKYLLSSIQWGDLANIQALPKAWDRISKDEHQDLVQDILLNVSFFLEE
In the case of B2, the binding result in series [2] is “binds”.

In the case of B3, the binding result in series [3] is “binds”.

B4: CINP, untagged, of the purified C1orf109-CINP sub-complex (natural protein, human, UniProt Q9BW66 1-212, looked up)
chain: MEAKTLGTVTPRKPVLSVSARKIKDNAADWHNLILKWETLNDAGFTTANNIANLKISLLNKDKIELDSSSPASKENEEKVCLEYNEELEKLCEELQATLDGLTKIQVKMEKLSSTTKGICELENYHYGEESKRPPLFHTWPTTHFYEVSHKLLEMYRKELLLKRTVAKELAHTGDPDLTLSYLSMWLHQPYVESDSRLHLESMLLETGHRAL
The term stoichiometry N denotes a count of units in the complex or per binding partner. With B4, the “stoichiometry N” value in series [4] was found to be 1.
